Target: T1, Zwf sub-unit (Zwf protein) of glucose 6-phosphate dehydrogenase from Corynebacterium glutamicum ATCC13032 (Corynebacterium glutamicum ATCC13032)
T1 construct: also called Zwf gene product; 60 kDa protein
T1 chain: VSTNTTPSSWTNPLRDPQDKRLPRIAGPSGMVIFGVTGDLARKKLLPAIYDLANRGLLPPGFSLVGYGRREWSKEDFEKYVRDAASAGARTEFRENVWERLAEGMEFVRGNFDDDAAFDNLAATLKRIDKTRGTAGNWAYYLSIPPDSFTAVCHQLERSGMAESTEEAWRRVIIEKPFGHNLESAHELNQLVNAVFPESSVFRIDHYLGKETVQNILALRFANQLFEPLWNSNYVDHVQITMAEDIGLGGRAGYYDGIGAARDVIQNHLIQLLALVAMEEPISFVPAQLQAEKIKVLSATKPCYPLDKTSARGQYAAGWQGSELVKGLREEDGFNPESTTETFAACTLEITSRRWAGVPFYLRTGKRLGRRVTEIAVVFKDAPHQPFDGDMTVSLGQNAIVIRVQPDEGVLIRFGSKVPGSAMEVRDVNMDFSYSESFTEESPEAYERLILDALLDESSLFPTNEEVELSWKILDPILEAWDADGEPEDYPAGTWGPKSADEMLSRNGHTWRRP
Test: co-purification over DEAE, Red-Sepharose and 2'5'-ADP-sepharose and gel filtration (Superdex G200pg); SDS-PAGE

B1: OpcA sub-unit (OpcA protein) of glucose 6-phosphate dehydrogenase from Corynebacterium glutamicum ATCC13032 (enzyme)
chain: MIFELPDTTTQQISKTLTRLRESGTQVTTGRVLTLIVVTDSESDVAAVTESTNEASREHPSRVIILVVGDKTAENKVDAEVRIGGDAGASEMIIMHLNGPVADKLQYVVTPLLLPDTPIVAWWPGESPKNPSQDPIGRIAQRRITDALYDRDDALEDRVENYHPGDTDMTWARLTQWRGLVASSLDHPPHSEITSVRLTGASGSTSVDLAAGWLARRLKVPVIREVTDAPTVPTDEFGTPLLAIQRLEIVRTTGSIIITIYDAHTLQVEMPESGNAPSLVAIGRRSESDCLSEELRHMDPDLGYQHALSGLSSVKLETV
notes: also called OpcA gene product; 30 kDa protein
- binding result: binds
